B1: humanized antibody 2E5H3L0 (antibody, human IgG1, kappa, V domains shown)
VH: EVQLVESGGGLVQPGGSLKLSCAASGYTFGDNWMNWVRQASGKGLEWVGEIRLKSNNYATRYAESVKGRFTISRDDSKNTVYLQMNSLKTEDTAVYYCTRTQFITSVVAPFDFWGQGTTVTVSS
VL: not shown
notes: also called 2E5H3L0 humanized antibody; hu2E5VH3CH/hu2E5VL0CL
B2: 2E5 mouse/human chimeric antibody (2E5HL) (antibody, human IgG1, kappa, V domains shown)
VH: EVKVEESGGGSVQPGGSMKLSCVASGYTFGDNWMNWVRQSPEKGLEWVAEIRLKSNNYATRYAESVKGRFTISRDDSKSSVYLQMNNLRTEDTGIYYCTRTQFITSVVAPFDFWGQGTTLTVSS
VL: not shown
notes: also called 2E5HL human-mouse chimeric antibody; c2E5VHCH/c2E5VLCL

Key:
[1] = target: pneumolysin (PLY) recombinant protein (Streptococcus pneumoniae, UniProt Q04IN8 1-471)
[2] = target: T1, attenuated PLY mut recombinant protein (pneumolysin with alanine 146 deleted) (Streptococcus pneumoniae, UniProt Q04IN8 1-471); experiment: ELISA, PLYmut coated at 0.1 µg/well, antibody in 2-fold dilutions, HRP goat anti-human IgG
T1 construct: The change is a deletion of A146, not a substitution ('-' under new means deleted); Expressed in E. coli BL21 (DE3) plysS with a C-terminal His tag; also called PLYmut protein; PLY mut antigen; not shown: C-terminal His tag

Binder | EC50 [1] [µg/mL] | EC50 [2] [µg/mL]
B1 | 0.0203 | 0.0162
B2 | 0.0171 | 0.0158

From patent US20240174736A1 (STARMAB BIOLOGICS SUZHOU, published 2024)
